T1: APBA3_1, O96018
T1 sequence (O96018 389-490, limits assumed, looked up): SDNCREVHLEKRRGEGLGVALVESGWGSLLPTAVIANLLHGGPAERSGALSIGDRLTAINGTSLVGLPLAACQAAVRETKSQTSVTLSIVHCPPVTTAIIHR

T2: DFNB31_3, Q9P202
T2 sequence (Q9P202 811-907, limits assumed, looked up): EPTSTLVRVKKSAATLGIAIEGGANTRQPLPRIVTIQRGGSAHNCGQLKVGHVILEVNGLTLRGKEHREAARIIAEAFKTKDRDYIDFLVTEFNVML

T3: DLG3_2, Q92796
T3 sequence (Q92796 221-321, limits assumed, looked up): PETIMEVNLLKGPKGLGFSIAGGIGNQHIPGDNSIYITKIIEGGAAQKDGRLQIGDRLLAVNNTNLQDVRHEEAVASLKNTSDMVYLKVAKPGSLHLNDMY

T4: LIN7A, O14910
T4 sequence (O14910 103-200, limits assumed, looked up): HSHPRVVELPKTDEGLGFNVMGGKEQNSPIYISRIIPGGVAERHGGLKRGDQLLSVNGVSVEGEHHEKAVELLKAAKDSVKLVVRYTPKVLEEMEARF

T5: NHERF3_1, Q5T2W1
T5 sequence (Q5T2W1 4-100, limits assumed, looked up): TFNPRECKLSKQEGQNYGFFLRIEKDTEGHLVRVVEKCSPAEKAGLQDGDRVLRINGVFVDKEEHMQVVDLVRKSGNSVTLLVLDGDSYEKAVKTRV

T6: PARD3B_1, Q8TEW8
T6 sequence (Q8TEW8 196-299, limits assumed, looked up): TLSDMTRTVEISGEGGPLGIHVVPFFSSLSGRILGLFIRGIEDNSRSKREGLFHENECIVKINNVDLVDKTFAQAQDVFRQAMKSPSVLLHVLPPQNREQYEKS

T7: RADIL, Q96JH8
T7 sequence (Q96JH8 971-1071, limits assumed, looked up): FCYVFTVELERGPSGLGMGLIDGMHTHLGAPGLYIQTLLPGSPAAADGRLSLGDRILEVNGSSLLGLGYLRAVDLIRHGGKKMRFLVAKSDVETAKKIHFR

T8: SNTG1, Q9NSN8
T8 sequence (Q9NSN8 52-150, limits assumed, looked up): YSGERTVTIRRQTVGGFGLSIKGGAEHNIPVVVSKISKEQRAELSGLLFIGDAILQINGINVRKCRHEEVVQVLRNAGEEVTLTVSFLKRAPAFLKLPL

T9: SYNJ2BP, P57105
T9 sequence (P57105 8-110, limits assumed, looked up): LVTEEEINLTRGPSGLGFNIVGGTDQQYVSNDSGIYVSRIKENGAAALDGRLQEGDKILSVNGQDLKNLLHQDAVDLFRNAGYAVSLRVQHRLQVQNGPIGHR

T10: TJP3_3, O95049
T10 sequence (O95049 375-456, limits assumed, looked up): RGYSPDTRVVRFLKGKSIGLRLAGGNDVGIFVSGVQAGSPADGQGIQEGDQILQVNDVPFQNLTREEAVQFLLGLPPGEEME

T11: TX1BP3, O14907
T11 sequence (O14907 10-122, limits assumed, looked up): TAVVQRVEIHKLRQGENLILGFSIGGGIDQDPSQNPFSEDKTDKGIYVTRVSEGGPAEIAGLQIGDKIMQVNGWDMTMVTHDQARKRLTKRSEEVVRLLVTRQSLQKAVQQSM


Assays:
Assay in all cases: holdup assay
Design in all cases: key: below the threshold = too weak to quantify, mostly under pKd 3.1 to 4
Settings in all cases: plain residues with an end cap or a label only (N-terminal biotin on a linker: ado-ado)
APBA3_1, O96018 = target: T1, APBA3_1, O96018
CASK, O14936 = target: CASK, O14936
DFNB31_3, Q9P202 = target: T2, DFNB31_3, Q9P202
DLG2_2, Q15700 = target: DLG2_2, Q15700
DLG2_3, Q15700 = target: DLG2_3, Q15700
DLG3_2, Q92796 = target: T3, DLG3_2, Q92796
DLG5_1, Q8TDM6 = target: DLG5_1, Q8TDM6
FRMPD2_1, Q68DX3 = target: FRMPD2_1, Q68DX3
FRMPD3, Q5JV73 = target: FRMPD3, Q5JV73
FRMPD4, Q14CM0 = target: FRMPD4, Q14CM0
GORASP2, Q9H8Y8 = target: GORASP2, Q9H8Y8
GRIP2_5, Q9C0E4 = target: GRIP2_5, Q9C0E4
IL16_3, Q14005 = target: IL16_3, Q14005
IL16_4, Q14005 = target: IL16_4, Q14005
Inadl_9, Q8NI35 = target: Inadl_9, Q8NI35
LIN7A, O14910 = target: T4, LIN7A, O14910
MAGI1_1, Q96QZ7 = target: MAGI1_1, Q96QZ7
MAGI2_3, Q86UL8 = target: MAGI2_3, Q86UL8
MAGI2_6, Q86UL8 = target: MAGI2_6, Q86UL8
NHERF3_1, Q5T2W1 = target: T5, NHERF3_1, Q5T2W1
NOS1, P29475 = target: NOS1, P29475
PARD3B_1, Q8TEW8 = target: T6, PARD3B_1, Q8TEW8
RADIL, Q96JH8 = target: T7, RADIL, Q96JH8
SNTG1, Q9NSN8 = target: T8, SNTG1, Q9NSN8
SYNJ2BP, P57105 = target: T9, SYNJ2BP, P57105
TJP3_3, O95049 = target: T10, TJP3_3, O95049
TX1BP3, O14907 = target: T11, TX1BP3, O14907

MAGI2_3, Q86UL8, sequence (Q86UL8 600-682): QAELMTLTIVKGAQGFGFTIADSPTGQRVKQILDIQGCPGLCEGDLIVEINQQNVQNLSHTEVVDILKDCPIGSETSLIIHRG
FRMPD4, Q14CM0, sequence (Q14CM0 67-160): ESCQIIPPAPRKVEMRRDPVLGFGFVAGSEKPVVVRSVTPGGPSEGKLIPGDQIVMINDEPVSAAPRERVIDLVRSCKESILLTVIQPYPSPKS
MAGI1_1, Q96QZ7, sequence (Q96QZ7 1-106): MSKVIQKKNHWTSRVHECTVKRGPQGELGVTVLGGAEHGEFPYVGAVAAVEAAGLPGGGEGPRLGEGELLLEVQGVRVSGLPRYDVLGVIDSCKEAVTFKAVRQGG
FRMPD3, Q5JV73, sequence (Q5JV73 12-100): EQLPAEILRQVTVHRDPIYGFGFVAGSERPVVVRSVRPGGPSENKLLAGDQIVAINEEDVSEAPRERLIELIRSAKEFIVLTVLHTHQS
Inadl_9, Q8NI35, sequence (Q8NI35 1530-1615): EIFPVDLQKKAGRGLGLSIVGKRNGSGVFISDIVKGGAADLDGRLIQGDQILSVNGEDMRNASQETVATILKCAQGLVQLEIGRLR
NOS1, P29475, sequence (P29475 9-101): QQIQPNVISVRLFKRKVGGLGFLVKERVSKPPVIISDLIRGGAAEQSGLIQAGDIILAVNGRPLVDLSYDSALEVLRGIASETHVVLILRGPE
FRMPD2_1, Q68DX3, sequence (Q68DX3 770-861): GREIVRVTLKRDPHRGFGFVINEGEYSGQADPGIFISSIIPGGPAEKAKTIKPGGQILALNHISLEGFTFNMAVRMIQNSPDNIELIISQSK
CASK, O14936, sequence (O14936 487-570): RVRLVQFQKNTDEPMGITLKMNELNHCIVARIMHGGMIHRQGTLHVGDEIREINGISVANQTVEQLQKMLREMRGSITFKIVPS
IL16_3, Q14005, sequence (Q14005 1107-1207): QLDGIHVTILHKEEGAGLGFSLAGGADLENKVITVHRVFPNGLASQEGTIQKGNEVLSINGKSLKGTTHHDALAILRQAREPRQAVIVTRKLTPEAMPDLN
IL16_4, Q14005, sequence (Q14005 1229-1329): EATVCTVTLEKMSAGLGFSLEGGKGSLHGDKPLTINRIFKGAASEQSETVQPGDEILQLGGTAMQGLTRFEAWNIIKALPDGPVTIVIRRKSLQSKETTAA
DLG5_1, Q8TDM6, sequence (Q8TDM6 617-713): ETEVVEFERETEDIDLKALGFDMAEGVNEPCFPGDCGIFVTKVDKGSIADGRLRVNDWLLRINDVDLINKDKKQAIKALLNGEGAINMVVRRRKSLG
MAGI2_6, Q86UL8, sequence (Q86UL8 1141-1229): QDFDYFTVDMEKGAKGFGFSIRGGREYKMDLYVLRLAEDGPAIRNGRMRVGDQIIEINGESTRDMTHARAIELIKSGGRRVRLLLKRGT
GRIP2_5, Q9C0E4, sequence (Q9C0E4 544-642): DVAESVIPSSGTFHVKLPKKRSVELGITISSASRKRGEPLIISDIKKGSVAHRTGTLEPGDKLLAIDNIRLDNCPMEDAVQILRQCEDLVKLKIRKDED

| Binder | pKd (APBA3_1, O96018) | pKd (CASK, O14936) | pKd (DFNB31_3, Q9P202) | pKd (DLG2_2, Q15700) | pKd (DLG2_3, Q15700) | pKd (DLG3_2, Q92796) | pKd (DLG5_1, Q8TDM6) | pKd (FRMPD2_1, Q68DX3) | pKd (FRMPD3, Q5JV73) | pKd (FRMPD4, Q14CM0) | pKd (GORASP2, Q9H8Y8) | pKd (GRIP2_5, Q9C0E4) | pKd (IL16_3, Q14005) | pKd (IL16_4, Q14005) | pKd (Inadl_9, Q8NI35) | pKd (LIN7A, O14910) | pKd (MAGI1_1, Q96QZ7) | pKd (MAGI2_3, Q86UL8) | pKd (MAGI2_6, Q86UL8) | pKd (NHERF3_1, Q5T2W1) | other results |
| --- | --- | --- | --- | --- | --- | --- | --- | --- | --- | --- | --- | --- | --- | --- | --- | --- | --- | --- | --- | --- | --- |
| AEDEEIQTKM [UNC93A, Q86WB7] | below the threshold | below the threshold | 3.88 | below the threshold | below the threshold | below the threshold | below the threshold | below the threshold | below the threshold | 3.63 | below the threshold | below the threshold | below the threshold | 3.52 | below the threshold | below the threshold | below the threshold | below the threshold | below the threshold | 5.39 | pKd (NOS1, P29475): below the threshold; pKd (PARD3B_1, Q8TEW8): below the threshold; pKd (RADIL, Q96JH8): below the threshold; pKd (SNTG1, Q9NSN8): below the threshold; pKd (SYNJ2BP, P57105): below the threshold; pKd (TJP3_3, O95049): below the threshold; pKd (TX1BP3, O14907): below the threshold |
| GDGLDDEIAV [NOS1AP, O75052] | below the threshold | below the threshold | below the threshold | below the threshold | below the threshold | 4.01 | below the threshold | below the threshold | 4.16 | 4.43 | below the threshold | below the threshold | below the threshold | below the threshold | 3.69 | below the threshold | below the threshold | below the threshold | below the threshold | below the threshold | pKd (NOS1, P29475): 3.8; pKd (PARD3B_1, Q8TEW8): below the threshold; pKd (RADIL, Q96JH8): below the threshold; pKd (SNTG1, Q9NSN8): below the threshold; pKd (SYNJ2BP, P57105): below the threshold; pKd (TJP3_3, O95049): below the threshold; pKd (TX1BP3, O14907): below the threshold |

The next lines start with results.

| pKd (APBA3_1, O96018) | pKd (CASK, O14936) | pKd (DFNB31_3, Q9P202) | pKd (DLG2_2, Q15700) | pKd (DLG2_3, Q15700) | pKd (DLG3_2, Q92796) | pKd (DLG5_1, Q8TDM6) | pKd (FRMPD2_1, Q68DX3) | pKd (FRMPD3, Q5JV73) | pKd (FRMPD4, Q14CM0) | pKd (GORASP2, Q9H8Y8) | pKd (GRIP2_5, Q9C0E4) | pKd (IL16_3, Q14005) | pKd (IL16_4, Q14005) | pKd (Inadl_9, Q8NI35) | pKd (LIN7A, O14910) | pKd (MAGI1_1, Q96QZ7) | pKd (MAGI2_3, Q86UL8) | pKd (MAGI2_6, Q86UL8) | pKd (NHERF3_1, Q5T2W1) | Binder | other results |
| --- | --- | --- | --- | --- | --- | --- | --- | --- | --- | --- | --- | --- | --- | --- | --- | --- | --- | --- | --- | --- | --- |
| below the threshold | below the threshold | below the threshold | 3.93 | below the threshold | 4.08 | below the threshold | below the threshold | below the threshold | below the threshold | below the threshold | below the threshold | below the threshold | below the threshold | 3.55 | below the threshold | below the threshold | below the threshold | below the threshold | below the threshold | QNRIITKTDV [SMCHD1, A6NHR9] | pKd (NOS1, P29475): below the threshold; pKd (PARD3B_1, Q8TEW8): below the threshold; pKd (RADIL, Q96JH8): 3.64; pKd (SNTG1, Q9NSN8): 3.48; pKd (SYNJ2BP, P57105): 4.24; pKd (TJP3_3, O95049): below the threshold; pKd (TX1BP3, O14907): 3.51 |
| below the threshold | below the threshold | 3.92 | 4.25 | 3.97 | 4.67 | below the threshold | below the threshold | below the threshold | below the threshold | below the threshold | below the threshold | below the threshold | 3.6 | below the threshold | below the threshold | 3.53 | 3.64 | 4.06 | 3.81 | NRVDSKETEC [ADAM17, P78536] | pKd (NOS1, P29475): below the threshold; pKd (PARD3B_1, Q8TEW8): below the threshold; pKd (RADIL, Q96JH8): below the threshold; pKd (SNTG1, Q9NSN8): 3.63; pKd (SYNJ2BP, P57105): 4.28; pKd (TJP3_3, O95049): below the threshold; pKd (TX1BP3, O14907): below the threshold |
| below the threshold | 3.75 | 3.52 | 3.49 | 4.05 | 3.66 | below the threshold | 4.51 | 4.06 | 3.97 | 5.1 | below the threshold | below the threshold | below the threshold | 4.51 | 3.58 | below the threshold | below the threshold | 3.76 | 4.52 | SVISRREWYV [NECTIN3, Q9NQS3] | pKd (NOS1, P29475): 4.04; pKd (PARD3B_1, Q8TEW8): 4.79; pKd (RADIL, Q96JH8): 5.27; pKd (SNTG1, Q9NSN8): 3.79; pKd (SYNJ2BP, P57105): 3.55; pKd (TJP3_3, O95049): 4.39; pKd (TX1BP3, O14907): below the threshold |

Reference: publication PMC9482650, “Quantitative fragmentomics allow affinity mapping of interactomes” (Nature Communications, 2022)
